We go through one molecule from publication PMC9599728, “Polydopamine-Functionalized Copper Peroxide/ZIF-8 Nanoparticle-Based Fluorescence-Linked Immunosorbent Assay for the Sensitive Determination of Carcinoembryonic Antigen by Self-Supplied H2O2 Generatio”.

This data set has as its target carcinoembryonic antigen (CEA) (UniProt P06731 35-685). The experiment in a line: sandwich FLISA (antibody capture, aptamer nanoparticle probe); CEA on anti-CEA antibody plate; linear 0.01-20 ng/mL, LOD 7.6 pg/mL (assay values, not affinity); CEA capture 37 C 1 h, aptamer probe room temperature 1 h; washes in PBS 10 mM pH 7.4; probe blocked with 1% BSA; read-out with 4 mM OPD in 10 mM HAc-NaAc pH 5.5, 3 h, 565 nm. The following applies: protein: commercial.

Sequence of carcinoembryonic antigen (CEA) (P06731 35-685): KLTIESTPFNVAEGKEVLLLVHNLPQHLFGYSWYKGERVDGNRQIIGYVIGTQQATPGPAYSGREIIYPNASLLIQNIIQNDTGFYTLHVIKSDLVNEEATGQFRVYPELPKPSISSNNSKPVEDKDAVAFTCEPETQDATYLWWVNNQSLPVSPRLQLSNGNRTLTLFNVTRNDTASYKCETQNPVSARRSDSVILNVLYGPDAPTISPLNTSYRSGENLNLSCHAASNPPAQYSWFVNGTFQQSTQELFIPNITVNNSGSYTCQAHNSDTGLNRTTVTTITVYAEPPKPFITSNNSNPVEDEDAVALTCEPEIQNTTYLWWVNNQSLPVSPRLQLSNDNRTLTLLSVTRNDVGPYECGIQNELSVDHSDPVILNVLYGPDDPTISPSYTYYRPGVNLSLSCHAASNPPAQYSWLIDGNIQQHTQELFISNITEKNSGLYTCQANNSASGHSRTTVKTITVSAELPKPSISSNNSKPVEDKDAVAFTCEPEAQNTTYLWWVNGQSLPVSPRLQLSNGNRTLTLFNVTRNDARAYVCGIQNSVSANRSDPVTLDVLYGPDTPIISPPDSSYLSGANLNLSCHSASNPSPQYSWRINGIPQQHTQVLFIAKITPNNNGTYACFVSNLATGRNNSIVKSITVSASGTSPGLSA

For the molecule TTTTATACCAGCTTATTCAATT (ssDNA, 5'-NH2; coupled by glutaraldehyde to CP/ZIF-8/PDA nanoparticles) [CEA aptamer], the binding result is “binds”.
